Assay results published in patent publication US20240352134A1 (published 2024).

Legend:
Dog CCR8 = Dog CCR8 (dog); experiment: FACS binding, dog CCR8-293T cells
rat CCR8 = molecular target: T1, rat CCR8 (rat, UniProt D4ADE0 1-353); experiment: FACS binding, rat CCR8-293T cells
T1 chain: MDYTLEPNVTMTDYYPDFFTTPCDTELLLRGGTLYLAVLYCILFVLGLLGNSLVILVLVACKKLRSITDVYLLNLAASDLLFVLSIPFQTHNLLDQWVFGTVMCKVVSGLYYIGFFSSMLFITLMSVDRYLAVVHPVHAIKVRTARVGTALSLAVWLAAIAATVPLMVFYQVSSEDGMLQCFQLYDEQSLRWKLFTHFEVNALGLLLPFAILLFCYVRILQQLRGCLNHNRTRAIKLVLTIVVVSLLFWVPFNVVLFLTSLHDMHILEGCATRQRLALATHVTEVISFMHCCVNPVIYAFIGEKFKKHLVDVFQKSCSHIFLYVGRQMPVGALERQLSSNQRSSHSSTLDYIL

mouse CCR8 = molecular target: T2, mouse CCR8 (mouse, UniProt P56484 1-353); experiment: FACS binding, mouse CCR8-CHOK1 cells
T2 chain: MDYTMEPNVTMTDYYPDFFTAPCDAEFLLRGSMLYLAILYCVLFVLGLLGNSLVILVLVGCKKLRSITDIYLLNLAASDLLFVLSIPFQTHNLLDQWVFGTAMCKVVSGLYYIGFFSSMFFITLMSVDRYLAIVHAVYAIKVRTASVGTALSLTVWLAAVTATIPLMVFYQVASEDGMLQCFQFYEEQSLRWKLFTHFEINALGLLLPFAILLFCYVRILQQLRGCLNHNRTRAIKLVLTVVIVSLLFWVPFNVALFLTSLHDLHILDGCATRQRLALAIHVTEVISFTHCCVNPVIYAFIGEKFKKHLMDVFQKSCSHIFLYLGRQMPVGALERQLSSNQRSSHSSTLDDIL

cynomolgus CCR8 = molecular target: T3, cynomolgus CCR8 (cynomolgus, UniProt G7NYJ2 1-355); experiment: FACS binding, cyno CCR8-293T cells
T3 chain: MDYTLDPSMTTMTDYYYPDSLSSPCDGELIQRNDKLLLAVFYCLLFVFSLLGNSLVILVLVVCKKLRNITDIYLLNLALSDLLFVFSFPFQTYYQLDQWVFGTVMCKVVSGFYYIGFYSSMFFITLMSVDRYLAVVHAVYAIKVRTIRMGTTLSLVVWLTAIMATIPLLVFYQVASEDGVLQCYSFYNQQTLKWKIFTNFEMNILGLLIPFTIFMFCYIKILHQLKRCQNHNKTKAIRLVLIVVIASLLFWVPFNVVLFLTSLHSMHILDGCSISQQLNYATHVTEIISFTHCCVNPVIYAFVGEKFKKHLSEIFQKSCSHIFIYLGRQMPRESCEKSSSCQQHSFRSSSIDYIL

EC50 (Dog CCR8): 2 nM
EC50 (rat CCR8): 3.2 nM
EC50 (mouse CCR8): 0.79 nM
EC50 (cynomolgus CCR8): 23.1 nM
B1: 3F11hz4 (antibody, V domains shown)
VH: EVQLVESGGGLVQPGGSLKLSCAASGFSFNTYAMNWVRQASGKGLEWVGRIRSKSNYYATYYAASVKGRFTISRDDSKSTLYLQMNSLKTEDTAVYYCVRGRELGDYYAMDYWGQGTLVTVSS
VL: DIVMTQSPLSLPVTPGEPASISCRSSKSLLHSNGNTYLYWFLQKPGQSPQLLIYRMSNLASGVPDRFSGSGSGTDFTLKISRVEAEDVGVYYCMQHLEYPFTFGQGTKLEIK
